One experiment addresses T1, STAT2_(133–679) V171E (mouse, UniProt Q9WVL2 133-679, V171E).
T1 sequence (looked up): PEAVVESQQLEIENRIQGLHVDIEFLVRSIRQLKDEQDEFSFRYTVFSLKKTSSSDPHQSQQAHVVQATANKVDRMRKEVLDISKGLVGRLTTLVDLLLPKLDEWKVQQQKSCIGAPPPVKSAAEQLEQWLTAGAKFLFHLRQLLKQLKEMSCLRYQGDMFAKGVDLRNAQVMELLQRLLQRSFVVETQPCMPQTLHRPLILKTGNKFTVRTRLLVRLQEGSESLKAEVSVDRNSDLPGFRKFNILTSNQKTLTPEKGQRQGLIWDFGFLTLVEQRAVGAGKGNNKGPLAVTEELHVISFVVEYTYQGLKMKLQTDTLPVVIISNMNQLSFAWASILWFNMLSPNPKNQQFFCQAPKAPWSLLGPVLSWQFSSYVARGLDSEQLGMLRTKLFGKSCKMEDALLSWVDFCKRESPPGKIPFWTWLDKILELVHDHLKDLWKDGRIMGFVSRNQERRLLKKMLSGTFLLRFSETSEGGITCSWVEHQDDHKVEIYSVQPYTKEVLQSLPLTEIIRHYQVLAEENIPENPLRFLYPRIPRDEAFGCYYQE
Nature of the experiment: ITC.

In the next experiment the target is T2, STAT1_(136–713) (mouse, UniProt P42225 136-713).
T2 sequence (looked up): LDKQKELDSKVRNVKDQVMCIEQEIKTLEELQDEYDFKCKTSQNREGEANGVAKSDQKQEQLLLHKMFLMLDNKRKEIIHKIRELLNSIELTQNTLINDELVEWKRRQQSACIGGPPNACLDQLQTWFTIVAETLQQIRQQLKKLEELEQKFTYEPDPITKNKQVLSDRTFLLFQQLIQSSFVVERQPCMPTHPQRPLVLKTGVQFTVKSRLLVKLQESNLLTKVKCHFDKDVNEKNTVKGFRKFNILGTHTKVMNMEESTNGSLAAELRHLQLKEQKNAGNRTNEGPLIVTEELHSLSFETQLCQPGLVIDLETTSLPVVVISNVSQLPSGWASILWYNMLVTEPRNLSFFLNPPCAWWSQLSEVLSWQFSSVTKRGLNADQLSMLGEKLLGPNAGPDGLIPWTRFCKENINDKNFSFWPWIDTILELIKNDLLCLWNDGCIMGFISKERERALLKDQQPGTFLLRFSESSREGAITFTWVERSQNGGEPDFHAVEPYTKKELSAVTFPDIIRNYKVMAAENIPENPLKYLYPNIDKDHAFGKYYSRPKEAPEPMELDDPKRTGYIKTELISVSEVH
The experiment is described as follows: ITC.

A further experiment addresses T3, STAT1_(136–713) E169V (mouse, UniProt P42225 136-713, E169V).
T3 sequence (looked up): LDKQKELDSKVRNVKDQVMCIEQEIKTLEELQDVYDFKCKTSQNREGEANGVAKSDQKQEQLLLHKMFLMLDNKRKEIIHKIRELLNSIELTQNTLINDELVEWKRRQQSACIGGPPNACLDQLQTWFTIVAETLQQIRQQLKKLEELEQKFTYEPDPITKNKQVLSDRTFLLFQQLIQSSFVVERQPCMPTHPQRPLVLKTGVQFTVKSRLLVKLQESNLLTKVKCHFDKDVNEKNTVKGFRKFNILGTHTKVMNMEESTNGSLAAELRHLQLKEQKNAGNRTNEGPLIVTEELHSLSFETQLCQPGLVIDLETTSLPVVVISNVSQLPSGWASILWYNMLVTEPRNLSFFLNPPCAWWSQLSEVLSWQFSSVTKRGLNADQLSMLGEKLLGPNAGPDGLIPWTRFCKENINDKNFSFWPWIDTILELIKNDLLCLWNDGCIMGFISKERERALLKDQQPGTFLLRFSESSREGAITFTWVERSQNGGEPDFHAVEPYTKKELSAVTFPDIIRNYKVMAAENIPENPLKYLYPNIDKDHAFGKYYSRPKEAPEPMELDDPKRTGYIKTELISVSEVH
The experiment is described as follows: ITC.

Another experiment addresses T4, STAT2_(133–679) (mouse, UniProt Q9WVL2 133-679).
T4 sequence (looked up): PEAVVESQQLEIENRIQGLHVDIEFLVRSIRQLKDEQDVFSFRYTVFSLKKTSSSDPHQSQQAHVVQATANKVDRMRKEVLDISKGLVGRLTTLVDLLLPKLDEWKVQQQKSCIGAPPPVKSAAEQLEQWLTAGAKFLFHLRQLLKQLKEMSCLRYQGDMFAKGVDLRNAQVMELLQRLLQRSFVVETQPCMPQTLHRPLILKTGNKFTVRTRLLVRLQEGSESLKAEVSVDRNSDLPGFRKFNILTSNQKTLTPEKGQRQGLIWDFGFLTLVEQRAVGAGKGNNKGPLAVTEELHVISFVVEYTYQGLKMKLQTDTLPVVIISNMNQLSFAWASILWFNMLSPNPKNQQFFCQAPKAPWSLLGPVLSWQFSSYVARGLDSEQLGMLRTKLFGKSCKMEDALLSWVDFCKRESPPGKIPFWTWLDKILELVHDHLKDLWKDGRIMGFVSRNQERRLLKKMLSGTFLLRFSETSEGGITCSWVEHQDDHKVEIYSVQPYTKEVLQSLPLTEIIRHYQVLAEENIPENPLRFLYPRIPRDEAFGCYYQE
The experiment is described as follows: ITC.

The target in experiment [1] is T5, IRF9–IAD_(182–385) E347A E348A (crystallised form in the complex) (mouse, UniProt Q61179 182-385, E347A | E348A).
T5 sequence (looked up): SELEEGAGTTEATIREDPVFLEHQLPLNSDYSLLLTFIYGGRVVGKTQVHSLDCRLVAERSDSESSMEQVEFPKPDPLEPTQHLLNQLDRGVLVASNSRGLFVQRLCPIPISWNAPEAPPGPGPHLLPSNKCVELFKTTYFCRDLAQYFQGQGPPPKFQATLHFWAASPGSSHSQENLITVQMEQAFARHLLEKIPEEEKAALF
Nature of the experiment: crystal structure.

A further experiment has as its target T6, STAT2_(133–738) (mouse, UniProt Q9WVL2 133-738).
T6 sequence (looked up): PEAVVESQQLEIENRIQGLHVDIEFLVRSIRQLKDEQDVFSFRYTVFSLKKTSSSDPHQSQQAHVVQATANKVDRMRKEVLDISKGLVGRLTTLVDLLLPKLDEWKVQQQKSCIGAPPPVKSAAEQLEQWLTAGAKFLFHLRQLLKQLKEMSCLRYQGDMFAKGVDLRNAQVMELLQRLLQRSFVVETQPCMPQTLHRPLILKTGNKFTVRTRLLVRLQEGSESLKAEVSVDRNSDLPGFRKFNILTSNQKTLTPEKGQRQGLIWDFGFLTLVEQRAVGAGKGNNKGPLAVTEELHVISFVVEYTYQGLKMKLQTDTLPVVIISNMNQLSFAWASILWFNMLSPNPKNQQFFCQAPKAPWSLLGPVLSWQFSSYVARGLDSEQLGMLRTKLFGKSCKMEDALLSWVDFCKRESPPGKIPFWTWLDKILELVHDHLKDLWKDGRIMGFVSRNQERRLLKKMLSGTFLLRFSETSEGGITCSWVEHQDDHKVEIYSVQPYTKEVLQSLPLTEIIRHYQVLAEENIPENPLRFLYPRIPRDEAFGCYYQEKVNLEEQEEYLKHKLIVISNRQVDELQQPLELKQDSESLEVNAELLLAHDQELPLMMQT
Nature of the experiment: SEC.

B1: IRF9–IAD_(182–385) (domain or fragment, mouse, UniProt Q61179 182-385, looked up)
chain: SELEEGAGTTEATIREDPVFLEHQLPLNSDYSLLLTFIYGGRVVGKTQVHSLDCRLVAERSDSESSMEQVEFPKPDPLEPTQHLLNQLDRGVLVASNSRGLFVQRLCPIPISWNAPEAPPGPGPHLLPSNKCVELFKTTYFCRDLAQYFQGQGPPPKFQATLHFWEESPGSSHSQENLITVQMEQAFARHLLEKIPEEEKAALF
As for B1, the Kd with STAT2_(133–679) V171E came to 2500 nM; with STAT1_(136–713) it was 5000 nM; with STAT1_(136–713) E169V it was 116 nM; in the experiment with STAT2_(133–679), 10 nM.

B2: IRF9–IAD IF3 (L326A, F330A, I376A) (domain or fragment, mouse, UniProt Q61179 182-385, looked up)
chain: SELEEGAGTTEATIREDPVFLEHQLPLNSDYSLLLTFIYGGRVVGKTQVHSLDCRLVAERSDSESSMEQVEFPKPDPLEPTQHLLNQLDRGVLVASNSRGLFVQRLCPIPISWNAPEAPPGPGPHLLPSNKCVELFKTTYFCRDAAQYAQGQGPPPKFQATLHFWEESPGSSHSQENLITVQMEQAFARHLLEKAPEEEKAALF
As for B2, binding with STAT2_(133–679) was characterised by a dissociation constant (Kd) of 17 nM. This counts as double-digit nanomolar.

B3: IRF9–IAD IF2 (R324E, D325K, Q331E, Q333E, P335S) (domain or fragment, mouse, UniProt Q61179 182-385, looked up)
chain: SELEEGAGTTEATIREDPVFLEHQLPLNSDYSLLLTFIYGGRVVGKTQVHSLDCRLVAERSDSESSMEQVEFPKPDPLEPTQHLLNQLDRGVLVASNSRGLFVQRLCPIPISWNAPEAPPGPGPHLLPSNKCVELFKTTYFCEKLAQYFEGEGSPPKFQATLHFWEESPGSSHSQENLITVQMEQAFARHLLEKIPEEEKAALF
B3 displayed an equilibrium dissociation constant (Kd) with STAT2_(133–679) of 11 nM.

B4: STAT2–CCD_(133–315) Q242A K243A (crystallised form) (domain or fragment, mouse, UniProt Q9WVL2 133-315, looked up)
chain: PEAVVESQQLEIENRIQGLHVDIEFLVRSIRQLKDEQDVFSFRYTVFSLKKTSSSDPHQSQQAHVVQATANKVDRMRKEVLDISKGLVGRLTTLVDLLLPKLDEWKVQQAASCIGAPPPVKSAAEQLEQWLTAGAKFLFHLRQLLKQLKEMSCLRYQGDMFAKGVDLRNAQVMELLQRLLQRS
Turning to B4, the binding result in experiment [1] is “binds”.

B5: full-length IRF9 (IRF9FL) (natural protein, mouse, UniProt Q61179 1-399, looked up)
chain: MASGKVRCTRKLRSWIVEQVESGHFPGVCWDDAAKTMFRIPWKHAGKQDFREDQDAAIFKAWALFKEKHKDGDIGHPAVWKTRLRCALNKSSEFEEVPERGRMDVAEPYKVYRILPAGTLPNQPRNQKSPCKRSISCVSPEREENMENGRTNGVVNHSDSGSNIGGGGNGSNRSDSNSNCNSELEEGAGTTEATIREDPVFLEHQLPLNSDYSLLLTFIYGGRVVGKTQVHSLDCRLVAERSDSESSMEQVEFPKPDPLEPTQHLLNQLDRGVLVASNSRGLFVQRLCPIPISWNAPEAPPGPGPHLLPSNKCVELFKTTYFCRDLAQYFQGQGPPPKFQATLHFWEESPGSSHSQENLITVQMEQAFARHLLEKIPEEEKAALFLLQHTEQSPSALGH
With B5, the binding result in the experiment with STAT2_(133–738) is “binds”.

The values are drawn from paper PMC5789952 (Proceedings of the National Academy of Sciences of the …, 2017).
